Test [1] deals with bombesin receptor of PC3 cells. Kind of test: 125I-ligand binding to PC3 cells; with 60 µM verapamil.
Test [2] deals with bombesin receptor of PC3 cells. Kind of test: 125I-ligand binding to PC3 cells; with 12 µM verapamil.
Test [3] concerns the target bombesin receptor of PC3 cells. Kind of test: 125I-ligand binding to PC3 cells, 37C; with 12 µM MK886.
Test [4] deals with bombesin receptor of PC3 cells. Kind of test: 125I-ligand binding to PC3 cells, 37C; with 60 µM NDGA.
Test [5] addresses bombesin receptor of PC3 cells. Kind of test: Scatchard analysis, PC3 cells, 37C.
The target in test [6] is bombesin receptor of PC3 cells. Kind of test: 125I-ligand binding to PC3 cells; with 60 µM NIF.
Test [7] concerns the target bombesin receptor of PC3 cells. Kind of test: 125I-ligand binding to PC3 cells, 37C.
The target of test [8] is bombesin receptor of PC3 cells. Kind of test: 125I-ligand binding to PC3 cells, 37C; with 60 µM AA-861.
Test [9] concerns the target bombesin receptor of PC3 cells. Kind of test: displacement of 125I-ligand by unlabeled ligand, PC3 cells, 37C. In general terms: Displacement assays read how much labelled ligand stays bound in the presence of the test substance.
For test [10], the target named is bombesin receptor of PC3 cells. Kind of test: 125I-ligand binding to PC3 cells, 37C; with 12 µM NDGA.
For test [11], the target named is bombesin receptor of PC3 cells. Kind of test: 125I-ligand binding to PC3 cells; with 12 µM SKF-96365.
Test [12] has as its target bombesin receptor of PC3 cells. Kind of test: 125I-ligand binding to PC3 cells; with 60 µM phloretin.
Test [13] deals with bombesin receptor of PC3 cells. Kind of test: 125I-ligand binding to PC3 cells; with 12 µM NIF.
For test [14], the target named is bombesin receptor of PC3 cells. Kind of test: 125I-ligand binding to PC3 cells; with 12 µM phloretin.
In test [15] the target is bombesin receptor of PC3 cells. Kind of test: 125I-ligand binding to PC3 cells, 37C; with 12 µM Rev-5901.
The target in test [16] is bombesin receptor of PC3 cells. Kind of test: 125I-ligand binding to PC3 cells, 37C; with 60 µM Rev-5901.
Test [17] addresses bombesin receptor of PC3 cells. Kind of test: 125I-ligand binding to PC3 cells; with 60 µM SKF-96365.
The target in test [18] is bombesin receptor of PC3 cells. Kind of test: 125I-ligand binding to PC3 cells, 37C; with 12 µM AA-861.
Test [19] has as its target bombesin receptor of PC3 cells. Kind of test: 125I-ligand binding to PC3 cells, 37C; with 60 µM MK886.
In test [20] the target is vasopressin (V1a) receptor of PC3 cells (UniProt P37288). Kind of test: 125I-HOLVA binding to PC3 cell membranes; with 60 µM NIF.
Chain of vasopressin (V1a) receptor of PC3 cells (P37288 whole entry): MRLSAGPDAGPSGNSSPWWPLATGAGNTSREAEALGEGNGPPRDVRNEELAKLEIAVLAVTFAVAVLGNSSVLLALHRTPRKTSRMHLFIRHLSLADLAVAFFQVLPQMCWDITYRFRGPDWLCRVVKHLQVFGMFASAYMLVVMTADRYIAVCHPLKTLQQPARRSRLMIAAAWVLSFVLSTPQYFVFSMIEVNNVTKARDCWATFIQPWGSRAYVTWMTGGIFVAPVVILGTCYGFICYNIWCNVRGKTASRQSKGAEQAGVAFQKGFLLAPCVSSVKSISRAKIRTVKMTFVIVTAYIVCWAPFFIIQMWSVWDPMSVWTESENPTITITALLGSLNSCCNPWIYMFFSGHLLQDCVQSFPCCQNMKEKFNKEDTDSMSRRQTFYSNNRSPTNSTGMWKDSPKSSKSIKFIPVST
Test [21] shares this target. Kind of test: 125I-ligand binding to PC3 cells; with 60 µM verapamil.
For test [22] the target is unchanged. Kind of test: 125I-ligand binding to PC3 cells; with 12 µM verapamil.
Test [23] has the same target. Kind of test: 125I-ligand binding to PC3 cells, 37C; with 12 µM MK886.
Test [24] shares this target. Kind of test: 125I-ligand binding to PC3 cells, 37C; with 60 µM NDGA.
Test [25] has the same target. Kind of test: Scatchard analysis, PC3 cells, 37C.
Test [26] shares this target. Kind of test: 125I-ligand binding to PC3 cells; with 60 µM NIF.
For test [27] the target is unchanged. Kind of test: 125I-ligand binding to PC3 cells, 37C.
For test [28] the target is unchanged. Kind of test: 125I-ligand binding to PC3 cells, 37C; with 60 µM AA-861.
For test [29] the target is unchanged. Kind of test: displacement of 125I-ligand by unlabeled ligand, PC3 cells, 37C.
Test [30] has the same target. Kind of test: 125I-ligand binding to PC3 cells, 37C; with 12 µM NDGA.
For test [31] the target is unchanged. Kind of test: 125I-ligand binding to PC3 cells; with 12 µM SKF-96365.
Test [32] shares this target. Kind of test: 125I-HOLVA binding to PC3 cell membranes; with 60 µM SKF-96365.
For test [33] the target is unchanged. Kind of test: 125I-ligand binding to PC3 cells; with 60 µM phloretin.
Test [34] has the same target. Kind of test: 125I-ligand binding to PC3 cells; with 12 µM NIF.
The target is the same in test [35]. Kind of test: 125I-ligand binding to PC3 cells; with 12 µM phloretin.
Test [36] shares this target. Kind of test: 125I-ligand binding to PC3 cells, 37C; with 12 µM Rev-5901.
The target is the same in test [37]. Kind of test: 125I-ligand binding to PC3 cells, 37C; with 60 µM Rev-5901.
Test [38] shares this target. Kind of test: 125I-ligand binding to PC3 cells; with 60 µM SKF-96365.
The target is the same in test [39]. Kind of test: 125I-HOLVA binding to PC3 cell membranes; with 60 µM verapamil.
Test [40] shares this target. Kind of test: 125I-ligand binding to PC3 cells, 37C; with 12 µM AA-861.
The target is the same in test [41]. Kind of test: 125I-ligand binding to PC3 cells, 37C; with 60 µM MK886.
The target of test [42] is T1, neurotensin receptor 1 (NTR1) of PC3 cells (UniProt P30989 1-418, limits assumed).
T1 construct: whole, on cells; its antiserum peptide is from human NTR1; Some assays used isolated PC3 cell membranes or detergent or SDS extracts instead of live cells (see the assay field); also called NT receptor
T1 sequence (P30989 whole entry): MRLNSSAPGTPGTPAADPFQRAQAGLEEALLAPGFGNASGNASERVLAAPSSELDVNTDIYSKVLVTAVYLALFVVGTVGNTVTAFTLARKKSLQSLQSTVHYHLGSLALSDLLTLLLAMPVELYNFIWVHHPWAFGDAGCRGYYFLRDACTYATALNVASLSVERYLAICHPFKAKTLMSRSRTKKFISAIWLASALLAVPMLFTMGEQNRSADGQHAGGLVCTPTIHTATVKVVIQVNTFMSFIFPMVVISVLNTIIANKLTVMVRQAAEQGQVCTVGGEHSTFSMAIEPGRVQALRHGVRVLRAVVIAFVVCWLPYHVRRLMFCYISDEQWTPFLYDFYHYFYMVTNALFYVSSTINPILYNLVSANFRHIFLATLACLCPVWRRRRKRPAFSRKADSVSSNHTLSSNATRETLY
Kind of test: UV crosslinking on PC3 cells, immunoprecipitated NTR1; with phloretin against control.

Test [43] has as its target T1, neurotensin receptor 1 (NTR1) of PC3 …. Kind of test: UV crosslinking on PC3 cells, immunoprecipitated NTR1; with verapamil against control.
For test [44] the target is unchanged. Kind of test: UV crosslinking on PC3 cells, immunoprecipitated NTR1; with 50 µM MK886.
For test [45] the target is unchanged. Kind of test: UV crosslinking on PC3 cells, immunoprecipitated NTR1; with 50 µM NDGA.
Test [46] shares this target. Kind of test: UV crosslinking on PC3 cells, immunoprecipitated NTR1; with NIF against control.

Chain of bombesin receptor of PC3 cells (P30550 whole entry): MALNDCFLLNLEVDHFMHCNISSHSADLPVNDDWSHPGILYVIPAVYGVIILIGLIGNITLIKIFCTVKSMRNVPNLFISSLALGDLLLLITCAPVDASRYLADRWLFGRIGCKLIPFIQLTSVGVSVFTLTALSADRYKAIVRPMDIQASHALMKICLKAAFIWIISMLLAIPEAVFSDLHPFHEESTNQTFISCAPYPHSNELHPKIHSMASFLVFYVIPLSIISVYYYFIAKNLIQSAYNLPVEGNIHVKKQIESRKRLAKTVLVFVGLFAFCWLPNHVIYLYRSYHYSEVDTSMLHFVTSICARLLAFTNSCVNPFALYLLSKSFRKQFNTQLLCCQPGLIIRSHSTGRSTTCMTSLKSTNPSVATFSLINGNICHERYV

The term Ki denotes a dissociation constant, usually derived from enzyme kinetics or from competition with a known ligand. As for (Tyr 4, Nle 14)-bombesin (peptide), the Specific Binding (% control) in [1] turned out to be 104 % control; in [2], 104 % control; in test [3], 106 % control; in [4] it was 127 % control; in [6], 119 % control; in [8], 135 % control. Further, the Specific Binding (% control) turned out to be 110 % control in [10]; 99 % control in test [11]; 111 % control in test [12]; 108 % control in test [13]; 104 % control in test [14]; 107 % control in test [15]. Further, the Specific Binding (% control) turned out to be 119 % control in test [16], 106 % control in [17], 112 % control in [18] and 125 % control in test [19]. The molecule also gave a Bmax in test [5] of 1020 fmol/mg. In addition, the Specific Binding (% of total) in test [7] was 95 % of total. This molecule also gave a Ki in test [9] of 0.6 nM.
Consider “des-Gly-[Phaal, D-Tyr(Et)2, Lys6, Arg8]-vasopressin (HOLVA) (peptide)”, for which the Binding (% control) was 90 % control in [20], 110 % control in test [32] and 91 % control in [39]. Besides, the Specific Binding (% control) in test [21] was 58 % control; in test [22], 85 % control; in test [23], 93 % control; in test [24], 50 % control; in test [26] it was 59 % control; in [28] it was 57 % control. In addition, the Specific Binding (% control) in test [30] was determined as 84 % control; in [31], 80 % control; in test [33] it was 73 % control; in [34] it was 95 % control; in [35], 92 % control; in test [36], 68 % control. The Specific Binding (% control) in test [37] amounted to 42 % control; in [38] it was 50 % control; in test [40], 87 % control; in [41] it was 67 % control. The molecule further had a Bmax in test [25] of 156 fmol/mg. Also, the Specific Binding (% of total) in test [27] was 77 % of total. In addition, in test [29], the Ki turned out to be 0.5 nM.

B1: ^125I-[4-azido-Phe^6]-NT (peptide)
peptide: ELYENFPRRPYIL
modifications: 4-azido-Phe at position 6; pGlu at position 1; 125I iodinated
notes: the residue at 6 is 4-azido-phenylalanine
Regarding B1, the “fold increase in radioactivity associated with NTR1” value came out at 1.8 fold in test [42]; 1.5 fold in test [43]; 2.7 fold in [44]; 2.6 fold in test [45]; 2.8 fold in test [46].

(Values after US20090203048A1 (UNIVERSITY OF MASSACHUSETTS, published 2009).)
